Assay [1] concerns the target T1, Cynomolgus TNFR2 (Macaca fascicularis (cynomolgus monkey), UniProt P20333 26-461 (human entry)).
T1 construct: Expressed on transiently transfected HEK293 cells; also called TNFR2-cyno; monkey TNFR2
T1 chain: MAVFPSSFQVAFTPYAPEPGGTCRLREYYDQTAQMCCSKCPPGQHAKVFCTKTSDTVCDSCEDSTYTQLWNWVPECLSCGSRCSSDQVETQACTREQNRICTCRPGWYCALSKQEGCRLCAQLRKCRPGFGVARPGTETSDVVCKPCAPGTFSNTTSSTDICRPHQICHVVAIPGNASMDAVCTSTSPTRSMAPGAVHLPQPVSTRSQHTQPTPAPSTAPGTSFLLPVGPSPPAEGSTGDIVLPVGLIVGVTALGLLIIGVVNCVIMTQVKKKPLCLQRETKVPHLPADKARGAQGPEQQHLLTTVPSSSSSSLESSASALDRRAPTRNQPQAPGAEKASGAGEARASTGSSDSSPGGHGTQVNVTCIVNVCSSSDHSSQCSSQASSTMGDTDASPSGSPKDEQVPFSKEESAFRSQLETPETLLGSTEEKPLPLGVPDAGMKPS
The assay can be described thus: equilibrium binding of the GpL fusion protein to HEK293 cells transiently transfected with cynomolgus TNFR2, 37 °C; empty-vector cells as non-specific binding. The protocol:
(§1) FIG. 14—Binding of TNFR2-specific antibodies to human, murine and cynomolgus TNFR2. HEK293 cells were transiently transfected with human, murine and cynomologus TNFR2 or empty vector. Equilibrium binding of the indicated anti-TNFR2 antibody GpL fusion proteins were then determined at 37° C. Binding to empty vector transfected cells was determined to obtain unspecific binding values.
(§2) Affinity (KD-values) of TNFR2-targeting antibodies to human, cynomolgus monkey, and murine TNFR2 was evaluated by cellular equilibrium binding studies. Therefore, HEK293T cells were transiently transfected with human, cynomolgus or mouse TNFR2 encoding expression plasmids or an empty vector control (EV) using the PEI method. […] Cell associated luciferase activity (RLU; relative light units) was detected with LUmo luminometer (anthos Mikrosysteme GmbH, Friesoythe, Germany) directly after adding 1.5 μM of the substrate coelenterazin (Carl Roth, Karlsruhe, Germany).
(§3) The binding properties of anti-TNFR2 antibodies from different clones were assessed. […] Equilibrium binding of the indicated anti-TNFR2 antibody GpL fusion proteins was then determined at 37° C. Binding to empty vector transfected cells was determined to obtain unspecific binding values.

Assay [2] has as its target T2, Human TNFR2 (human, UniProt P20333 23-461).
T2 construct: On cells: HeLa-TNFR2, HT1080-Bcl2-TNFR2, transiently transfected HEK293; endogenous on Kym-1 cells; also called huTNFR2; TNFRSF1B
T2 sequence: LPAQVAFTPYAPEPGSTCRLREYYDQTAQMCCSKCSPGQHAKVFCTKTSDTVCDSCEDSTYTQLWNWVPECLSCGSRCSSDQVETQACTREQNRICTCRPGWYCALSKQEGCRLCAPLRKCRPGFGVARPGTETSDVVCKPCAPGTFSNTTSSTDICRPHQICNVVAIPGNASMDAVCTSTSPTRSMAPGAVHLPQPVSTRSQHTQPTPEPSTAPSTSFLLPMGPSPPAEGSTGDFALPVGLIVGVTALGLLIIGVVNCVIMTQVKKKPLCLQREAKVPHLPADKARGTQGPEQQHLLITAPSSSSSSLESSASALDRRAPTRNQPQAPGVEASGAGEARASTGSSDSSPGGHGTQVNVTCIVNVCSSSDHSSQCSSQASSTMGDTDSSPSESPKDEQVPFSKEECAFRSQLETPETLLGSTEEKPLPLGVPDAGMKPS
The assay can be described thus: binding of the GpL tagged protein to HEK293 cells transiently transfected with TNFR2, 1 h 37 °C; empty-vector cells as non-specific binding. Here is the method:
(§4) HEK293 cells were transiently transfected with: (i) a TNFR2 expression plasmid; (ii) an expression plasmid encoding the extracellular domain of TNFR1 with a GPI anchor domain; or (iii) empty vector (ev). Next day, the indicated GpL tagged binding molecules were added at the indicated concentration to the cells. After incubation for 1 hour at 37° C., followed by two washes with PBS, the remaining cell bound GpL activity was determined.
(§5) An experiment was performed to illustrate the ability of the binding molecules provided to bind TNFR2, but not TNFR1. HEK293 cells were transiently transfected with: (i) a TNFR2 expression plasmid; (ii) an expression plasmid encoding the extracellular domain of TNFR1 with a GPI anchor domain; or (iii) empty vector (ev). […] The proteins indicated in FIG. 27 were added at the indicated concentration to the HEK293 cells. After incubation for 1 hour at 37° C., followed by two washes with PBS, the remaining cell bound GpL activity was determined.

The target of assay [3] is T3, Murine TNFR2 (mouse, UniProt P25119 23-474).
T3 construct: Expressed on transiently transfected HEK293 cells; also called mouse TNFR2; TNFR2(mu)
T3 sequence: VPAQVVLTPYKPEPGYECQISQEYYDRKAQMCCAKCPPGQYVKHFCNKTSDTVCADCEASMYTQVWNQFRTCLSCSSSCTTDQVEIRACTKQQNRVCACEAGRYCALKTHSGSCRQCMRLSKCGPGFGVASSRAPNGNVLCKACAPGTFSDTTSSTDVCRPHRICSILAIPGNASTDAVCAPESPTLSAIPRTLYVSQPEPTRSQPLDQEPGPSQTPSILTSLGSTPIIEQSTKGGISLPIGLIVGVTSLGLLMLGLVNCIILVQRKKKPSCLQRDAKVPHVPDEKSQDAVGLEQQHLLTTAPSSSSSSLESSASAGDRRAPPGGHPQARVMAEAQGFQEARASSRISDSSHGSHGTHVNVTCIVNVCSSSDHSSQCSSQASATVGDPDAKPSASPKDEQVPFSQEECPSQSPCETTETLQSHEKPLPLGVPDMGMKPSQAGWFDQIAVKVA
The assay can be described thus: equilibrium binding of the GpL fusion protein (label C9-IgG1-LC:GpL) to HEK293 cells transiently transfected with murine TNFR2; empty-vector cells as non-specific binding. The protocol: as §1, §2, §3

Assay [4] addresses T4, Extracellular domain of TNFR1 with a GPI anchor domain (UniProt P19438 30-211).
T4 construct: extracellular domain; not shown: GPI anchor domain
T4 sequence (looked up): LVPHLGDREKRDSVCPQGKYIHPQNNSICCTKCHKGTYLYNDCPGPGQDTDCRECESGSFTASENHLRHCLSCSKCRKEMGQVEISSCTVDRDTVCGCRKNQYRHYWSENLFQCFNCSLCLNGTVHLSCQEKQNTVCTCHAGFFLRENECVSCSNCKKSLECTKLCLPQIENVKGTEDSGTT
The assay can be described thus: binding of the GpL tagged protein to HEK293 cells transiently transfected with the TNFR1 extracellular domain with GPI anchor; empty-vector cells as non-specific binding. The protocol: as §4, §5

The target of assay [5] is T2, Human TNFR2. In words: equilibrium binding of the GpL fusion protein to HeLa-TNFR2 cells, 37 °C; unspecific binding on HeLa cells subtracted; cell-bound luciferase. The protocol:
FIG. 11—Binding properties of TNFR2-specific antibodies. (A) Equilibrium binding of the indicated anti-TNFR2 antibody GpL fusion proteins to cell expressed human TNFR2 at 37° C. (B) HeLa-TNFR2 cells were pretreated with the indicated amounts of anti-TNFR2 antibodies or remained untreated. […] Binding of the various constructs to untransfected HeLa cells was analyzed to obtain unspecific binding values.
Affinity of TNFR2-specific antibodies and antibody variants were also evaluated with HeLa cells and HeLa cells stably expressing human TNFR2. HeLa and HeLa-TNFR2 cells were seeded out in 24-well plates. Next day, the cells were challenged with the indicated concentrations of GpL-labelled TNFR2 antibodies for 1 hour at 37° C. To eliminate the unbound antibodies, the cells were washed 10 times with ice-cold PBS. The cells were then scratched and collected in 50 μl of medium (RPMI, 0.5% FCS) and transferred to black 96-well plates for measurement as mentioned above. The specific binding of different TNFR2-specific antibodies/antibody variants was calculated by subtracting the unspecific binding (values obtained from HeLa cells) from total binding (obtained from HeLa-TNFR2). The resulting values were fitted using the non-linear regression analysis option of GraphPad Prism 5.

Assay [6] has as its target T5, African green monkey TNFR2 (Chlorocebus sabaeus (African green …)).
T5 construct: whole, on cells
The assay can be described thus: equilibrium binding of VHH-Fc-GpL to cells expressing African green monkey TNFR2, 37 C; column head Affinity (ng/ml). The protocol: (§6) Specific binding (open circles) was obtained by subtraction of the non-specific binding values (Hek293 cells—crosses) from the binding values for transfectants expressing human TNFR2 (total binding—closed circles). Specific binding was analyzed with the “nonlinear regression to a one-site specific binding curve” function of the GraphPad Prism5 software.
(§7) The equivalent experiment was also performed using TNFR2 from different species, namely from Mus musculus (mouse), Macaca fascicularis (cynomolgus monkey), and Chlorocebus sabaeus (African green monkey) to study the ability of the VHH regions to bind to TNFR2 from different species. The ability to cross react to TNFR2 from different species can be helpful in allowing the antibodies to be studied in various models before assessment in human patients.

Assay [7] addresses T2, Human TNFR2. In words: equilibrium binding of VHH-Fc-GpL to cells expressing human TNFR2, 37 °C; HEK293 cells as unspecific binding; one-site fit of specific binding.
The target of assay [8] is T3, Murine TNFR2. In words: equilibrium binding of VHH-Fc-GpL to cells expressing mouse TNFR2, 37 C; column head Affinity (ng/ml). Here is the method: as §6, §7
Assay [9] concerns the target T1, Cynomolgus TNFR2. In words: equilibrium binding of VHH-Fc-GpL to cells expressing cynomolgus TNFR2, 37 C; column head Affinity (ng/ml). Here is the method: as §6, §7
For assay [10], the target named is T2, Human TNFR2. The assay can be described thus: specific binding of the GpL fusion protein to HeLa-TNFR2 cells after 8 h, HeLa values subtracted, luciferase activity normalised to GpL per binding site.
Procedure: HeLa-TNFR2 cells were pretreated with 3-10 μg/ml of the indicated anti-TNFR2 antibodies or remained untreated. […] Supernatants of HeLa-TNFR2 cells were then analyzed for TNFR2-induced IL8 production (B) and repeatedly washed cells (HeLa, and HeLa-TNFR2) were analyzed for cell-associated GpL activity. Specific binding to TNFR2, shown in (A) was calculated by subtraction of the unspecific binding values obtained from the HeLa cells from the total binding values derived of the HeLa-TNFR2 cells. […] The latter was transformed into “occupied receptors per cells” by help of the number of cells in the assay and the measured specific activity (RLU/molecule) of the GpL constructs.
Supernatants of HeLa-TNFR2 were then analyzed for TNFR2-induced IL8 production with the results shown in (B). Repeatedly washed cells (HeLa, and HeLa-TNFR2) were analyzed for cell-associated GpL activity. Specific binding to TNFR2, was calculated by subtraction of the unspecific binding values obtained from the HeLa cells from the total binding values derived of the HeLa-TNFR2 cells with the results obtained shown in (A).

The text below walks through data of patent US20240190983A1 (JULIUS MAXIMILIANS UNIVERSIT T W RZBURG, published 2024).

B1: C9-IgG1(N297A)-LC:GpL (antibody)
light: EVKLVPRQLDYKDDDDKELQIVLTQSPAIMSASPGEKVTITCSASSSVSYMHWFQQKPGTSPKLWIYSTSNLASGVPARFSGSGSGTSYSLTISRMEAEDAATYYCQQRSSYPPTFGGGTKLEIKGSEIKRTVAAPSVFIFPPSDEQLKSGTASVVCLLNNFYPREAKVQWKVDNALQSGNSQESVTEQDSKDSTYSLSSTLTLSKADYEKHKVYACEVTHQGLSSPVTKSFNRGECLEKPTENNEDFNIVAVASNFATTDLDADRGKLPGKKLPLEVLKEMEANARKAGCTRGCLICLSHIKCTPKMKKFIPGRCHTYEGDKESAQGGIGEAIVDIPEIPGFKDLEPMEQFIAQVDLCVDCTTGCLKGLANVQCSDLLKKWLPQRCATFASKIQGQVDKIKGAGGD
heavy: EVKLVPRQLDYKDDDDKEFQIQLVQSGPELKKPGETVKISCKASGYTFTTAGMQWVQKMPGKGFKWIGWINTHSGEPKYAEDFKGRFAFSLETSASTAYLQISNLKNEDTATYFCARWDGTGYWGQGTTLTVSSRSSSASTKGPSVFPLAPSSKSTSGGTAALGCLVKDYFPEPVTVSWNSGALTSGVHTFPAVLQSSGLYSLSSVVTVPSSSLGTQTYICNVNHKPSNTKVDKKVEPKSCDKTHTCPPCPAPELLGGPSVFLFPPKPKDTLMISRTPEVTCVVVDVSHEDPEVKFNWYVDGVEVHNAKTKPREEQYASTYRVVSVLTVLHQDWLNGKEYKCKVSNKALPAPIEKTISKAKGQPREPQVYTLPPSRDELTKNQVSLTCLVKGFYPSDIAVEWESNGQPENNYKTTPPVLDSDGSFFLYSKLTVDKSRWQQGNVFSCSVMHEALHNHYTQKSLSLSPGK
notes: copies: 2 + 2
What is called Kd is the free concentration of one partner at which half of the binding sites on the other are occupied at equilibrium, for simple one-to-one binding. Consider B1, for which the Kd with Cynomolgus TNFR2 [1] worked out at 1.1 µg/mL; with Human TNFR2 [2], 0.13 µg/mL; in the assay with Human TNFR2 [5], 0.22 µg/mL. In addition, the binding result with Murine TNFR2 [3] is on record as “no binding (tested: 1500 ng/ml)”; in [4], “no binding (tested: 750 ng/ml)”. In the assay with Human TNFR2 [5], this molecule had a Bmax of 1000 kRLU.

B2: VHH:C188-Fc-GpL (Fc fusion, Gaussia princeps)
chain: DVQLVESGGGSVQTGGSLTLSCAISGSTSERYCLGWFRQAPGREREGVAATSLTGRGAQFYADSVKGRFTISLDDAKNTLYLQMDSLRPDDTAVYYCAEDVGFLCGYDSDNDPFYDWGQGTQVTVSS
notes: also called VHH-Fc-GpL format protein of C188; not shown: Fc domain; Gaussia princeps luciferase (GpL) reporter domain at the C-terminus of the Fc
For B2, the Kd in [6] is 0.15 µg/mL; with Human TNFR2 [7] it was 0.57 µg/mL; in the assay with Murine TNFR2 [8] it was 0.95 µg/mL; in the assay with Cynomolgus TNFR2 [9] it was 0.45 µg/mL.

B3: C4-IgG1(N297A)-LC:GpL-HC:scFvC4 (antibody)
light: EVKLVPRQLDIVMTQSHKFMSTSVGDRVSITCKASQDVDTAVAWYQQKPGQSPKLLIYWASTRHTGVPDRFTGSGSGTDYTLTISSVQAEDLARYYCQQYYSVPPTFGGGTKLGSEIKRTVAAPSVFIFPPSDEQLKSGTASVVCLLNNFYPREAKVQWKVDNALQSGNSQESVTEQDSKDSTYSLSSTLTLSKADYEKHKVYACEVTHQGLSSPVTKSFNRGECLEKPTENNEDFNIVAVASNFATTDLDADRGKLPGKKLPLEVLKEMEANARKAGCTRGCLICLSHIKCTPKMKKFIPGRCHTYEGDKESAQGGIGEAIVDIPEIPGFKDLEPMEQFIAQVDLCVDCTTGCLKGLANVQCSDLLKKWLPQRCATFASKIQGQVDKIKGAGGD
heavy: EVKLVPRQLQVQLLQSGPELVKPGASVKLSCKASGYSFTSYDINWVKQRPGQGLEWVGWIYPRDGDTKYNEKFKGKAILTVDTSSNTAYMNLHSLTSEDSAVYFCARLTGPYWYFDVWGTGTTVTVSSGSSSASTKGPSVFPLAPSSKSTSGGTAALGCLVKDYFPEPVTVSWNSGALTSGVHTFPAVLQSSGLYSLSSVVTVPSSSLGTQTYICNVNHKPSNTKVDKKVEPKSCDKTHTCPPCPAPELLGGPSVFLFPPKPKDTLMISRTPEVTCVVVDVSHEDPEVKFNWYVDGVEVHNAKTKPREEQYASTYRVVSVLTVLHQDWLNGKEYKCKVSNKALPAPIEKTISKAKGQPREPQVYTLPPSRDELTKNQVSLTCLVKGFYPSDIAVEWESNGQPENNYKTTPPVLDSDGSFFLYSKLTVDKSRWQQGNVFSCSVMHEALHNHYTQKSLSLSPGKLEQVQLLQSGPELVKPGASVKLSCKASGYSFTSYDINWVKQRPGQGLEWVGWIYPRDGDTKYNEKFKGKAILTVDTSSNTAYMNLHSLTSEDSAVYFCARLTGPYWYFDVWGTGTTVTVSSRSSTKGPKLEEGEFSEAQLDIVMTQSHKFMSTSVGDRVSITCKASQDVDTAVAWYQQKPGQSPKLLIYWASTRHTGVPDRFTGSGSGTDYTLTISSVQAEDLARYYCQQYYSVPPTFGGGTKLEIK
notes: copies: 2 + 2
Consider B3, for which the binding result in the assay with Human TNFR2 [10] is given as “binds”.

B4: VHH:C238-Fc-GpL (Fc fusion)
VHH: QVQLVESGGGSVQPGGSLTLSCVDSGSAYLSYCMAWFRQAPGKEREGVAAIYYGGDSYYADSVKGRFTISQDHAKNTMYLQMNSLKPEDTAVYYCAADVGFICGYDSDNDPPNDWGQGTQVTVSS
notes: also called VHH-Fc-GpL format protein of C238; not shown: the listing has no entry for the VHH-Fc-GpL format
For B4, the Kd was 0.17 µg/mL in [6], 0.67 µg/mL with Human TNFR2 [7], 1.05 µg/mL with Murine TNFR2 [8] and 0.2 µg/mL with Cynomolgus TNFR2 [9].
